Patent US10865391B2, “Glutamate dehydrogenase mutants and their application in preparation of L-phosphinothricin” (ZHEJIANG UNIVERSITY, priority 2018, dated 2020)

Experiments:
Type in all cases: biochemical
[1] = Preparation of L-phosphinothricin by coupling glutamate dehydrogenase with glucose dehydrogenase; details: 500 mM PPO, NADP+, GluDH cells 0.5 g/L, 35° C., pH 7.5, 6 h
Procedure: (§1) The reaction process is monitored by measuring the concentration of substrate in the reaction solution applying high-performance liquid chromatography (HPLC). HPLC analysis method is stated as follows: column model: Pntulips® QS-C18, 5 μm, 4.6 mm×250 mm. Mobile phase: 50 mM (NH4)2HPO4, added 1% of 10% tetrabutyl ammonium hydroxide, adjusted to pH 3.6 with 50% phosphoric acid(mass fraction), added 8% acetonitrile. Detective wave length is 205 nm; flow rate is 1.0 mL/min. Column temperature is 40° C.
(§2) The enantiomeric excess and concentration of product are determined through pre-column derivatization high-performance liquid chromatography; the specific analysis method is stated as follows:
(§3) (1) HPLC condition: column model: Pntulips® QS-C18, 5 μm, 4.6 mm×250 mm. Mobile phase: 50 mM Sodium acetate: Acetonitrile=8: 0.5 (v/v). Detective wave length: 338 nm. Flow rate: 0.85 mL/min. Column temperature: 30° C.
(§4) (2) Derivatization reagent: Weigh 0.03 g phthalaldehyde and 0.1 g N-acetyl-L-cysteine, and use 400 uL ethanol for solubilization; after that, add 4 mL 0.2 mol/L borate buffer (pH 9.8) and shake for dissolution prior to storage in the fridge under the temperature of 4° C. (no more than 4 days).
(§5) (3) Derivatization reaction and analysis: Add 150 μL derivatization reagent into 100 μL sample, mix and incubate at 25° C. for 5 min, and then inject 20 μL for analysis.
Culture recombinant E. coli expressing glutamate dehydrogenase (PpGluDH) and glucose dehydrogenase (BsGDH-2M, SEQ ID NO. 21) with method in Step 3 of Embodiment 1; proceed with centrifugal collection of cells and ultrasonic cell disruption to prepare crude enzyme solution.
(§6) The final volume of the reaction is 30 mL; each sample contains 500 mM substrate PPO, 600 mM glucose, 250 mM (NH4)2SO4 and 0.5 mM NADP^+. Concentration of glutamate dehydrogenase cells (dry weight) is 1.0 g/L; concentration of glucose dehydrogenase cells (dry weight) is 1.25 g/L. Use water bath to control the reaction temperature at 35° C.; titrate ammonia to control pH at 7.5 during the reaction process. Use non-chiral HPLC to determine residual concentration of PPO after reaction for 6 h; meanwhile, use pre-column derivatization HPLC to determine the concentration and ee value of formed L-phosphinothricin.
as §6, with “0.5” for “1.0”
as §6, with “NAD^+.” for “NADP^+.”, “1.25” for “1.0”
The final volume of the reaction is 30 mL; each sample contains 500 mM substrate PPO, 600 mM glucose, 250 mM (NH4)2SO4 and 0.5 mM NAD^+. Concentration of glutamate dehydrogenase cells (dry weight) is 1.25 g/L; concentration of glucose dehydrogenase cells (dry weight) is 1.25 g/L. Use water bath to control the reaction temperature at 35° C.; titrate ammonia to control pH at 7.5 during the reaction process. […]

[2] = Preparation of L-phosphinothricin by coupling glutamate dehydrogenase with alcohol dehydrogenase; details: 500 mM PPO, 750 mM isopropanol, TBADH, NADP+, GluDH cells 0.5 g/L, 35° C., pH 7.5, 12 h
Procedure: as §1, §2, §3, §4, §5
Culture recombinant E. coli expressing glutamate dehydrogenase (LsGluDHp-A175G, SEQ ID NO. 7) and alcohol dehydrogenase (TBADH, WP_041589967.1) with method in Step 3 of Embodiment 1; proceed with centrifugal collection of cells and ultrasonic cell disruption to prepare crude enzyme solution.
The final volume of the reaction is 30 mL; each sample contains 500 mM substrate PPO, 750 mM isopropanol, 250 mM (NH4)2SO4 and 0.5 mM NADP^+. Concentration of glutamate dehydrogenase cells (dry weight) is 0.5 g/L; concentration of alcohol dehydrogenase cells (dry weight) is 2.5 g/L. Use water bath to control the reaction temperature at 35° C.; titrate ammonia to control pH at 7.5 during the reaction process. […]

[3] = Standard enzyme activity measurement toward PPO, crude enzyme (per volume fermentation broth)

B1: LsGluDHp-A175G: LsGluDHp mutant A175G, SEQ ID NO. 7 (protein)
chain: MTITTVSNEQLAKEYVDGVFEQLKQQNCHQAEFLQAAEEIFISLVPVFVQHPEYIKANILSRIVEPDRIISFRVAWQDDHNQVQVNRGYRVQYSNVMGPYKGGLRFHPSVNESIIKFLGFEQIFKNALTGQPIGGGKGGSNFDPKGKSDSEIMRFCQAFMTELYRHIGPDVDVPGGDIGVGAREVGYLWGQYKRLTKASESGVLTGKTPGYGGSLARKEATGYGTVYFVNEMLKDVNDSFEGKTVVVSGSGNVSTYAIEKAQQYGAKVVACSDSSGYIYDPEGLDLDVIKEIKEVKGDRISTYVSYRPNATFTNGCTGIWTIPCDIALPCATQNEINGESARTLISNGVKAIGEGANMPSDLEAINEFLNAGVLFGPAKAANAGGVAVSALEMAQDSSRVFWSFEEVDAKLHQIMKDIYSDSKAAAEKYGFPGNLVMGANIAGFIKVADGMLTEGIY
modifications: Lysinibacillus sphaericus glutamate dehydrogenase mutant
For B1, the “concentration of formed L-phosphinothricin” value [1] was 82.4 g/L, the “residual PPO” value [1] was 0 mM and the substrate conversion [1] was 100%. The “concentration of formed L-phosphinothricin” value [2] was 81.3 g/L, the “residual PPO” value [2] was 1.3 mM and the substrate conversion [2] was 99.7%. For the same molecule, the Fold change [3] was 1641 and the “Enzyme activity of mutants (U/mL)” value ([3]; toward PPO, crude enzyme, standard system, N.D. = no detectable activity) was 34.47 U/mL.
